Molecular target: microtubules (polymerised α/β-tubulin) (UniProt Q6B856)
Chain of UniProt Q6B856 (Q6B856 whole entry, looked up): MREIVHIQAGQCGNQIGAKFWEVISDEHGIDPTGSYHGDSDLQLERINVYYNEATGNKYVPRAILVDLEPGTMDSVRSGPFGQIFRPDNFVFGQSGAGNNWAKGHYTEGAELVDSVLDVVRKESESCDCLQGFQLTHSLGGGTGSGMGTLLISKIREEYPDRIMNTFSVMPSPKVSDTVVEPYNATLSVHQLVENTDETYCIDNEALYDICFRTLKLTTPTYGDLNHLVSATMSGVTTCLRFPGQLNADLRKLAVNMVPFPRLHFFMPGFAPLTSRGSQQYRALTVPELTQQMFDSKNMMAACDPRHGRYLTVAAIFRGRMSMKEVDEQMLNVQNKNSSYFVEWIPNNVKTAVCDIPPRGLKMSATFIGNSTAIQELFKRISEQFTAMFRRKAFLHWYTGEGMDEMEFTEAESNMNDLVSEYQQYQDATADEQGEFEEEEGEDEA

human CEN subcomplex with wild-type Borealin (CEN-Borealin^wt) (from UniProt Q9NQS7 1-58; O15392 1-142; Q53HL2 1-280)
width of bundles of GMpCpp-stabilized rhodamine-labeled MTs (100 nM) after 2 min with 4 μM CEN, TIRF microscopy (single GMpCpp MTs measure 0.34 μm): 0.46 μm

Reference: article PMC10876603
